Measured values published in patent publication US20220347268A1 (MEDICENNA THERAPEUTICS, published 2022).
Substitutions are numbered along the chain they refer to.

B1: C11 (ligand)
cytokine: PGPVPPSTAHRELIEELVNITQNQKAPLCNGSMVWSINLTAGMYCAALESLINVSGCSAIEKTQRMLSGFCPHKVSAGQFSSLHVTGRKIEVAQFVKDLLLHLKKLFKEGQFN
notes: grouped under 'IL-13Rα2 specific'; also called IL-13 variant C11
B2: A5 (ligand)
cytokine: B1 cytokine with H10L, R11I, V18I, T86K, R88S, L101H, K104R, K105A, F107M, K108R
notes: grouped under 'IL-13Rα1 specific'; also called IL-13 variant A5
B3: A7 (ligand)
cytokine: B1 cytokine with H10I, V18I, T86R, R88S, L101H, K104R, K105A, K108R
notes: grouped under 'IL-13Rα1 specific'; also called IL-13 variant A7
B4: B6 (ligand)
cytokine: B1 cytokine with H10T, V18I, T86R, R88S, L101Y, K104R, K105T, K108R
notes: grouped under 'IL-13Rα1 specific'; also called IL-13 variant B6
B5: A11 (ligand)
cytokine: B1 cytokine with H10V, V18I, T86R, G87S, R88S, L101F, K104R, K105T, K108R
notes: Grouped under 'IL-13Rα1 specific'; also called IL-13 variant A11
B6: B4 (ligand)
cytokine: B1 cytokine with H10L, R11S, V18I, T86K, R88S, K89M, L101Y, K104R, K105T, K108R
notes: grouped under 'IL-13Rα1 specific'; also called IL-13 variant B4
B7: B2 (ligand)
cytokine: B1 cytokine with H10L, V18I, R88S, L101Y, K104R, K105A, K108R
notes: grouped under 'IL-13Rα1 specific'; also called IL-13 variant B2
B8: A6 (ligand)
cytokine: B1 cytokine with H10I, V18L, T86M, G87K, R88S, L101H, K104R, K105A, K108R
notes: grouped under 'IL-13Rα1 specific'; also called IL-13 variant A6
B9: A8 (ligand)
cytokine: B1 cytokine with H10I, V18I, T86R, G87S, R88S, K89R, L101H, K104R, K105T, K108R
notes: grouped under 'IL-13Rα1 specific'; also called IL-13 variant A8
B10: C4 (ligand)
cytokine: B1 cytokine with H10V, T86R, G87D, R88T, K89R, L101N, K105E, K108T
notes: grouped under 'IL-13Rα2 specific'; also called IL-13 variant C4
B11: D7 (ligand)
cytokine: B1 cytokine with H10A, V18F, T86K, G87K, R88T, K89R, L101I, K104R
notes: grouped under 'IL-13Rα2 specific'; also called IL-13 variant D7

Biological target: T1, IL-13Rα1
T1 construct: also called IL13Ra1
T1 chain: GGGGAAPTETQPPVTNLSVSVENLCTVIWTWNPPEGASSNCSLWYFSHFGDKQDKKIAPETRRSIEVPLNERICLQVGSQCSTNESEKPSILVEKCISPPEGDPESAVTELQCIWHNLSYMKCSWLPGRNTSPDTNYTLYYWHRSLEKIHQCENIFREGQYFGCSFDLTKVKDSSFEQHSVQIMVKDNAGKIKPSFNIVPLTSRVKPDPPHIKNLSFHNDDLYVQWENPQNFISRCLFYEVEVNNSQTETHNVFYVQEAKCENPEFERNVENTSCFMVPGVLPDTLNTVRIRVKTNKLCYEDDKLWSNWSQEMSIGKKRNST
Test: SPR, column KD (eq)

Row | Binder | Kd
1 | B1 | 1600 nM

Biological target: T1, IL-13Rα1
Test: SPR, kinetic (column K1)

Row | Binder | kon
2 | B2 | 2.8e+06 M⁻¹ s⁻¹
3 | B3 | 2.9e+06 M⁻¹ s⁻¹
4 | B4 | 1.4e+06 M⁻¹ s⁻¹
5 | B5 | 1.64e+07 M⁻¹ s⁻¹
6 | B6 | 1.36e+06 M⁻¹ s⁻¹
7 | B7 | 6.3e+06 M⁻¹ s⁻¹
8 | B8 | 1.77e+06 M⁻¹ s⁻¹
9 | B9 | 1.64e+06 M⁻¹ s⁻¹

Biological target: T2, IL-13Rα2
T2 construct: also called IL13Ra2; CD213A2
T2 chain: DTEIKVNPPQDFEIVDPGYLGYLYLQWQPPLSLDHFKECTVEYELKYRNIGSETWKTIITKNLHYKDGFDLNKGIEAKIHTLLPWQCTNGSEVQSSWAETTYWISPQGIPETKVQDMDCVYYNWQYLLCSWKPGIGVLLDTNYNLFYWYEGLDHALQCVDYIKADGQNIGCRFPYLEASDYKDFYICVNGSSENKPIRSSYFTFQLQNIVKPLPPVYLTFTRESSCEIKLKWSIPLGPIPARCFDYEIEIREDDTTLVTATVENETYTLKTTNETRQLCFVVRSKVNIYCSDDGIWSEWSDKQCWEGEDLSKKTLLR
Test: SPR, kinetic (column K1)

Row | Binder | kon
10 | B1 | 6.41e+06 M⁻¹ s⁻¹
11 | B10 | 1.94e+06 M⁻¹ s⁻¹
12 | B11 | 1.77e+07 M⁻¹ s⁻¹

Biological target: T1, IL-13Rα1
Test: SPR, kinetic (column K-1)

Row | Binder | koff
13 | B2 | 0.0082 s⁻¹
14 | B3 | 0.0034 s⁻¹
15 | B4 | 0.0082 s⁻¹
16 | B5 | 0.0013 s⁻¹
17 | B6 | 0.024 s⁻¹
18 | B7 | 0.0017 s⁻¹
19 | B8 | 0.0033 s⁻¹
20 | B9 | 0.0033 s⁻¹

Biological target: T2, IL-13Rα2
Test: SPR, kinetic (column K-1)

Row | Binder | koff
21 | B1 | 9.18e-07 s⁻¹
22 | B10 | 0.000764 s⁻¹
23 | B11 | 5.37e-05 s⁻¹
